Target: UBE2D1 (UniProt P51668 1-147)
Assay: ITC

UBE2D1, sequence (P51668 whole entry): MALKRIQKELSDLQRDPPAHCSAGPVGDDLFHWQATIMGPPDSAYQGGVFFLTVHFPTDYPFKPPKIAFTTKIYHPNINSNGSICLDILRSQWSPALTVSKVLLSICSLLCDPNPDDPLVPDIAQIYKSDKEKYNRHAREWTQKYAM

B1: UBOX-UBL (designed binder)
chain: AEIDYSDAPDEFRDPIMDTLMTDPVRLPSGTVMDRSIILRHLLNSPTDPFNRQTLTESMLEPVPELKEQIQAWMREKQNSDHGGSSGGSSGGSSMWIQVRTMDGRQTHTVDSLSRLTKVEELRRKIQELFHVEPGLQRLFYRGKQMEDGHTLFDYEVRLNDTIQLLVRQS
- stoichiometry N: ~1

B2: RING-UBL (designed binder)
chain: SLTAQQSSLIREDKSNAKLWNEVLASLKDRPASGSPFQLFLSKVEETFQCICCQELVFRPITTVCQHNVCKDCLDRSFRAQVFSCPACRYDLGRSYAMQVNQPLQTVLNQLFPGYGNGRGGSSGGSSGGSSGGSSMWIQVRTMDGRQTHTVDSLSRLTKVEELRRKIQELFHVEPGLQRLFYRGKQMEDGHTLFDYEVRLNDTIQLLVRQS
- Kd: 3.1 ± 0.7 µM
- stoichiometry N: ~1

From publication PMC11398408 (bioRxiv, 2024)
